One molecule from article PMC12693483, “A screen for synthetic genetic interactions with the Saccharomyces cerevisiae hrq1ΔN allele” can be followed below.

This data set has as its target T1, Hrq1 (Saccharomyces cerevisiae, UniProt Q05549 1-1077).
T1 sequence: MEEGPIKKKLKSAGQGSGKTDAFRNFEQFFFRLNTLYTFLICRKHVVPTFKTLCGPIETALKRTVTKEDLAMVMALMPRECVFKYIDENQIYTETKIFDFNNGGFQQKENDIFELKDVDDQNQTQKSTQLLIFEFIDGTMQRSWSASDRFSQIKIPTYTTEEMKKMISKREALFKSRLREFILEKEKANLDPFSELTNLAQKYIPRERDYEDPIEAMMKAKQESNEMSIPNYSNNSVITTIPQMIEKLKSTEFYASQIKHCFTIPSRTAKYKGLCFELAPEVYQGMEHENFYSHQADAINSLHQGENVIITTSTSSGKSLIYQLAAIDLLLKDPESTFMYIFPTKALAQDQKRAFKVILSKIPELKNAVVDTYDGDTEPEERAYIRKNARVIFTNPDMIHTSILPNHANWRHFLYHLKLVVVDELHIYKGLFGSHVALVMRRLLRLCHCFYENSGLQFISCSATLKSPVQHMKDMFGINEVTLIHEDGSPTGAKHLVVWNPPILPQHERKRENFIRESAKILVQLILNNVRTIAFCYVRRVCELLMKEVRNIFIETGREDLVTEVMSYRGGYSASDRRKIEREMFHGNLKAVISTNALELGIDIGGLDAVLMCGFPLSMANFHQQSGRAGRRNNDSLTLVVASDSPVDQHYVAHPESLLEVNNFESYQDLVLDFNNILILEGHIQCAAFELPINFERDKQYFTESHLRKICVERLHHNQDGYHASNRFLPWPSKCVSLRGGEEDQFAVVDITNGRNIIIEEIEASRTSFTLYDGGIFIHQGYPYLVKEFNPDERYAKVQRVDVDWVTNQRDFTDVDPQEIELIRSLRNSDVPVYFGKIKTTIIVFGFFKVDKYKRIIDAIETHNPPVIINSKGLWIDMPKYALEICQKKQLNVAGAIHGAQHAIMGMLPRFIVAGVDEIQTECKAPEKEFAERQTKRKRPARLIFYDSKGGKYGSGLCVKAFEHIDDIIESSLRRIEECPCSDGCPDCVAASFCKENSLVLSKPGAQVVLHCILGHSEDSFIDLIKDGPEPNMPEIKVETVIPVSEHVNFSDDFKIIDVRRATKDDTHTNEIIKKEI
The data set can be described thus: EMSA; 0.2-5 nM protein; 7.5 mM MgOAc; no ATP stated; EMSA: 0.1 nM labelled DNA, 25 mM Na-HEPES pH 8.0, 5% glycerol, 50 mM NaOAc pH 7.6, 150 µM NaCl, 7.5 mM MgOAc, 0.01% Tween-20, 30 min at 30 °C; 8% 19:1 gel in 1x TBE. To be noted: protein: recombinant; label: 5'-32P; single strand.

As for TTTTTTTTTTTTTTTTTTTTTTTTTTTTTT (ssDNA) [poly(dT) 30mer], the binding result is “binds”.
